The values below come from patent US20150329626A1.

In assay [1] the target is human Ang2 (human) (UniProt O15123). As to the kind of experiment: cell-based or functional assay.
Assay [2] concerns the target cyno Ang2 (cynomolgus monkey). As to the kind of experiment: Biacore SPR, 37 C, n = 3, antibody captured on Protein A.
For the next assay, the target named is dog Ang2 (dog). The assay is described as above.
Assay [3] concerns the target human Ang2 (human) (UniProt O15123). Described as above.
In a further assay the target is mouse Ang2 (mouse) (UniProt O35608). Described as above.
Chain of mouse Ang2 (mouse) (O35608 19-496 limits assumed): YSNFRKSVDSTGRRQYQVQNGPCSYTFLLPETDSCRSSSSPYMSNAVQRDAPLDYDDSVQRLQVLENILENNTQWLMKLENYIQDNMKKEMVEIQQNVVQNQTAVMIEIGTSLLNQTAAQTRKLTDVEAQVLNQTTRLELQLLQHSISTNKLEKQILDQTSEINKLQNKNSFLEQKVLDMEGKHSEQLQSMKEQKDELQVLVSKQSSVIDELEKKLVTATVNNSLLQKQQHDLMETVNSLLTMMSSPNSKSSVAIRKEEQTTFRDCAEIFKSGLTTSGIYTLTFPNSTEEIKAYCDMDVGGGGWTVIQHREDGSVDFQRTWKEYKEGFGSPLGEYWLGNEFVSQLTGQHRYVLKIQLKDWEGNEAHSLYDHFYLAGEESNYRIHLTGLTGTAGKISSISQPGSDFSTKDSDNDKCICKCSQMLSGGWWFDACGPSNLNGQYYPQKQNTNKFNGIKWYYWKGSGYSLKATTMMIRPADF
The next assay concerns the target rabbit Ang2 (rabbit) (UniProt G1T9B3). The assay is described as above.
The target of assay [4] is human Ang2 (human) (UniProt O15123). The experiment in a line: competition ELISA: blocking of biotinylated human Ang2 binding to plate-coated human Tie2-Fc. For orientation: An ELISA detects its analyte on a solid surface through an enzyme-linked reagent.

Chain of dog Ang2 (dog) (A0A8J8 19-495 limits assumed): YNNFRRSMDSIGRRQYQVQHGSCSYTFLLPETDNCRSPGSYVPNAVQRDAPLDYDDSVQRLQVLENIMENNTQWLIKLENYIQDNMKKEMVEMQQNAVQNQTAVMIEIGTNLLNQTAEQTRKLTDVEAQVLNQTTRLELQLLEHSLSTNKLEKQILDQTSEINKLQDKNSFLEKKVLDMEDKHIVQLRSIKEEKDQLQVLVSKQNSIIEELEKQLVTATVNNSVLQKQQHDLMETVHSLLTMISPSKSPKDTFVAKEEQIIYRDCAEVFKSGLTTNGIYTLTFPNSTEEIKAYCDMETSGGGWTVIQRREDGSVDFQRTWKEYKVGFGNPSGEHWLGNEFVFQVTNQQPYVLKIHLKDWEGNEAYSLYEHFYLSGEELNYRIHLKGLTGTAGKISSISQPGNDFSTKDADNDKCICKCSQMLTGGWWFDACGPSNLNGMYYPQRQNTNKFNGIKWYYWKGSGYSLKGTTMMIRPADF
Chain of rabbit Ang2 (rabbit) (G1T9B3 entry or part of it): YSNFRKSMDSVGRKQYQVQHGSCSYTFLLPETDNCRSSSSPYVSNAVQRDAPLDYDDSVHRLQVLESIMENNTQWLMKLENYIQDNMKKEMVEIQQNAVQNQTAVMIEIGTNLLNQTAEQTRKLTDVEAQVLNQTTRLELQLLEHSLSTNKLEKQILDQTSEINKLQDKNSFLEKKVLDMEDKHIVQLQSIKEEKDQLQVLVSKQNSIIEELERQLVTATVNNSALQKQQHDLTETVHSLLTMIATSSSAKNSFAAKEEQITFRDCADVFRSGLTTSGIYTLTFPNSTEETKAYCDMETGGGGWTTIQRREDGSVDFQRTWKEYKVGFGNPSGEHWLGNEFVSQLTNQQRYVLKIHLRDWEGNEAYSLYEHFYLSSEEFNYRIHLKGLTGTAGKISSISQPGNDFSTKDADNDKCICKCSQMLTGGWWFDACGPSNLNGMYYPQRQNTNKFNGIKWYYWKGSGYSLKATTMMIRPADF
Chain of human Ang2 (human) (O15123 19-496 limits assumed): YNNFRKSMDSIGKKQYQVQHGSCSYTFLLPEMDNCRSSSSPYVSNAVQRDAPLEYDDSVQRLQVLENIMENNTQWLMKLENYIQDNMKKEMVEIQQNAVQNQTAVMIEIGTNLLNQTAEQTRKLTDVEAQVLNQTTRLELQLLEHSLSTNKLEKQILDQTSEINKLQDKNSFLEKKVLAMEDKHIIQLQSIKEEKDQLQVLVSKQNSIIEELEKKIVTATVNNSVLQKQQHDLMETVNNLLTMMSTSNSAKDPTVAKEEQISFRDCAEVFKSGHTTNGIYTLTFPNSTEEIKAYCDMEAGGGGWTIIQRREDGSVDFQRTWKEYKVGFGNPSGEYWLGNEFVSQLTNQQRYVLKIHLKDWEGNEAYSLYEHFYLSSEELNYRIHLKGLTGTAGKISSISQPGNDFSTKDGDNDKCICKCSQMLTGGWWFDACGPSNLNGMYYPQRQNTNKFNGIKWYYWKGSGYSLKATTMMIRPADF

B1: Ang2 antibody with the same HCDRs and LCDRs as the scFv polypeptide portion of Compound F (antibody, V domains shown)
VH: QVQLVQSGAEVKKPGSSVKVSCKASGYSFTDYNMVWVRQAPGQCLEWMGYIDPYNGGTGYNQKFEGRVTITADESTSTAYMELSSLRSEDTAVYYCARTRDRYDVWYFDVWGQGTLVTVSS
VL: DIVMTQSPDSLAVSLGERATINCKASQDVYIAVAWYQQKPGQPPKLLIYWASTRDTGVPDRFSGSGSGTDFTLTISSLQAEDVAVYYCHQYSSYPPTFGCGTKVEIK
modifications: CDRs only; frameworks, constant regions missing
The term Kd denotes a measure of binding affinity in units of concentration. In general, koff refers to the rate constant with which the complex falls apart. A high value points to a short-lived complex. Usually kon stands for a measure of how fast the partners come together. For orientation: IC50 means the concentration that gives 50% inhibition. A low value points to higher potency. For the molecule B1, in the assay with human Ang2 (human) [1], the inhibition of human Ang2 induced phospho-Tie2 in CHO-Tie2 cells (IC50) amounted to 0.773 nM. The Kd in assay [2] worked out at 0.107 nM; in the assay with dog Ang2 (dog) it was 0.14 nM; with human Ang2 (human) [3] it was 0.08 nM; with mouse Ang2 (mouse) it was 0.109 nM; with rabbit Ang2 (rabbit), 0.21 nM. Moreover, the koff in assay [2] worked out at 0.00029 s⁻¹; in the assay with dog Ang2 (dog), 0.00011 s⁻¹; in the assay with human Ang2 (human) [3] it was 7e-05 s⁻¹; in the assay with mouse Ang2 (mouse) it was 0.00011 s⁻¹; with rabbit Ang2 (rabbit), 0.00015 s⁻¹. The kon is 2.7e+06 M⁻¹ s⁻¹ in assay [2]; 790000 M⁻¹ s⁻¹ with dog Ang2 (dog); 1e+06 M⁻¹ s⁻¹ with human Ang2 (human) [3]; 1e+06 M⁻¹ s⁻¹ in the assay with mouse Ang2 (mouse); 730000 M⁻¹ s⁻¹ with rabbit Ang2 (rabbit). Further, the IC50 with human Ang2 (human) [4] was 0.027 nM.
